Measurements reported in patent US20030108992A1.

Tests used:
Fas 1-210:YFP (human) = Fas 1-210:YFP (human) (UniProt P25445); test: CFP dequenching after YFP photobleaching, fluorescence microscope
p60 TNFR (endogenous) = p60 TNFR (endogenous) (UniProt P19438); test: cell-based or functional assay
p60 55-211 [1] = target: p60 55-211 (UniProt P19438); test: flow cytometry of transfected cells; normalized against HA staining
p60ΔCD-HA [2] = target: p60ΔCD-HA (UniProt P19438); test: as above
p60ΔCD-HA DT49/50AA [3] = target: p60ΔCD-HA DT49/50AA (UniProt P19438); test: as above
p60ΔCD-HA E57A [4] = target: p60ΔCD-HA E57A (UniProt P19438); test: as above
p60ΔCD-HA K19E [5] = target: p60ΔCD-HA K19E (UniProt P19438); test: as above
p60ΔCD-HA K32A [6] = target: p60ΔCD-HA K32A (UniProt P19438); test: as above
p60ΔCD-HA KY19/20AA [7] = target: p60ΔCD-HA KY19/20AA (UniProt P19438); test: as above
p60ΔCD-HA L112E [8] = target: p60ΔCD-HA L112E (UniProt P19438); test: as above
p60ΔCD-HA N66F [9] = target: p60ΔCD-HA N66F (UniProt P19438); test: as above
p60ΔCD-HA Q24A [10] = target: p60ΔCD-HA Q24A (UniProt P19438); test: as above
p60ΔCD-HA R77A [11] = target: p60ΔCD-HA R77A (UniProt P19438); test: as above
p60ΔCD-HA T61A [12] = target: p60ΔCD-HA T61A (UniProt P19438); test: as above
p60ΔCD-HA W108T [13] = target: p60ΔCD-HA W108T (UniProt P19438); test: as above
p60 55-211 [14] = target: p60 55-211 (UniProt P19438); test: flow cytometry of transfected cells; % MAB225 positive / % HA positive
p60ΔCD-HA [15] = target: p60ΔCD-HA (UniProt P19438); test: as above
p60ΔCD-HA DT49/50AA [16] = target: p60ΔCD-HA DT49/50AA (UniProt P19438); test: as above
p60ΔCD-HA E57A [17] = target: p60ΔCD-HA E57A (UniProt P19438); test: as above
p60ΔCD-HA K19E [18] = target: p60ΔCD-HA K19E (UniProt P19438); test: as above
p60ΔCD-HA K32A [19] = target: p60ΔCD-HA K32A (UniProt P19438); test: as above
p60ΔCD-HA KY19/20AA [20] = target: p60ΔCD-HA KY19/20AA (UniProt P19438); test: as above
p60ΔCD-HA L112E [21] = target: p60ΔCD-HA L112E (UniProt P19438); test: as above
p60ΔCD-HA N66F [22] = target: p60ΔCD-HA N66F (UniProt P19438); test: as above
p60ΔCD-HA Q24A [23] = target: p60ΔCD-HA Q24A (UniProt P19438); test: as above
p60ΔCD-HA R77A [24] = target: p60ΔCD-HA R77A (UniProt P19438); test: as above
p60ΔCD-HA T61A [25] = target: p60ΔCD-HA T61A (UniProt P19438); test: as above
p60ΔCD-HA W108T [26] = target: p60ΔCD-HA W108T (UniProt P19438); test: as above

Q: Which FRET efficiency (Fas 1-210:YFP (human)) does the source give for “Fas 1-210:CFP (from UniProt P25445 17-226) (receptor)” here?
A: 16%

Q: Which DOMINANT … (protection against TNF-induced death) (p60 TNFR (endogenous)) does the source give for “p60 55-211 (from UniProt P19438 55-211) (receptor)” here?
A: < 5 % protection

Q: Which results are given for “p60-specific monoclonal antibody clone 4.12 (Zymed)”?
A: clone 4.12 staining normalized to HA staining (ratio, p60ΔCD set at 1) (p60 55-211 [1]): 0.02; clone 4.12 staining normalized to HA staining (ratio, p60ΔCD set at 1) (p60ΔCD-HA [2]): 1; clone 4.12 staining normalized to HA staining (ratio, p60ΔCD set at 1) (p60ΔCD-HA DT49/50AA [3]): 0.96; clone 4.12 staining normalized to HA staining (ratio, p60ΔCD set at 1) (p60ΔCD-HA E57A [4]): 0.04; clone 4.12 staining normalized to HA staining (ratio, p60ΔCD set at 1) (p60ΔCD-HA K19E [5]): 1.07; clone 4.12 staining normalized to HA staining (ratio, p60ΔCD set at 1) (p60ΔCD-HA K32A [6]): 0.01; clone 4.12 staining normalized to HA staining (ratio, p60ΔCD set at 1) (p60ΔCD-HA KY19/20AA [7]): 0.14; clone 4.12 staining normalized to HA staining (ratio, p60ΔCD set at 1) (p60ΔCD-HA L112E [8]): 1.27; clone 4.12 staining normalized to HA staining (ratio, p60ΔCD set at 1) (p60ΔCD-HA N66F [9]): 0.04; clone 4.12 staining normalized to HA staining (ratio, p60ΔCD set at 1) (p60ΔCD-HA Q24A [10]): 0.97; clone 4.12 staining normalized to HA staining (ratio, p60ΔCD set at 1) (p60ΔCD-HA R77A [11]): 0.99; clone 4.12 staining normalized to HA staining (ratio, p60ΔCD set at 1) (p60ΔCD-HA T61A [12]): 1.28; clone 4.12 staining normalized to HA staining (ratio, p60ΔCD set at 1) (p60ΔCD-HA W108T [13]): 1.11

Q: Which MAB225 staining normalized to HA staining (ratio, p60ΔCD set at 1) (p60 55-211 [14]) does the source give for “p60-specific monoclonal antibody clone MAB225 (R&D Systems)” here?
A: 0.87

Q: And the MAB225 staining normalized to HA staining (ratio, p60ΔCD set at 1) (p60ΔCD-HA [15])?
A: 1

Q: What about the MAB225 staining normalized to HA staining (ratio, p60ΔCD set at 1) (p60ΔCD-HA DT49/50AA [16]) of the same substance?
A: 1.16

Q: And the MAB225 staining normalized to HA staining (ratio, p60ΔCD set at 1) (p60ΔCD-HA E57A [17])?
A: 1.68

Q: What about the MAB225 staining normalized to HA staining (ratio, p60ΔCD set at 1) (p60ΔCD-HA K19E [18]) of the same substance?
A: 1.05

Q: What about the MAB225 staining normalized to HA staining (ratio, p60ΔCD set at 1) (p60ΔCD-HA K32A [19]) of the same substance?
A: 0.36

Q: What about the MAB225 staining normalized to HA staining (ratio, p60ΔCD set at 1) (p60ΔCD-HA KY19/20AA [20]) of the same substance?
A: 0.59

Q: And the MAB225 staining normalized to HA staining (ratio, p60ΔCD set at 1) (p60ΔCD-HA L112E [21])?
A: 1.31

Q: What about the MAB225 staining normalized to HA staining (ratio, p60ΔCD set at 1) (p60ΔCD-HA N66F [22]) of the same substance?
A: 0.67

Q: What about the MAB225 staining normalized to HA staining (ratio, p60ΔCD set at 1) (p60ΔCD-HA Q24A [23]) of the same substance?
A: 1.06

Q: And the MAB225 staining normalized to HA staining (ratio, p60ΔCD set at 1) (p60ΔCD-HA R77A [24])?
A: 1.06

Q: And the MAB225 staining normalized to HA staining (ratio, p60ΔCD set at 1) (p60ΔCD-HA T61A [25])?
A: 1.42

Q: And the MAB225 staining normalized to HA staining (ratio, p60ΔCD set at 1) (p60ΔCD-HA W108T [26])?
A: 1.32

Q: Which DOMINANT … (protection against TNF-induced death) (% of p60ΔCD wild type) (p60 TNFR (endogenous)) does the source give for “p60ΔCD-HA (from UniProt P19438 30-240) (receptor)” here?
A: 50

Q: With “p60ΔCD-HA DT49/50AA (from UniProt P19438 30-240) (receptor)” as the substance, how does the DOMINANT … (protection against TNF-induced death) (% of p60ΔCD wild type) (p60 TNFR (endogenous)) read?
A: 50

Q: With “p60ΔCD-HA E57A (from UniProt P19438 30-240) (receptor)” as the substance, how does the DOMINANT … (protection against TNF-induced death) (% of p60ΔCD wild type) (p60 TNFR (endogenous)) read?
A: 50

Q: Which DOMINANT … (protection against TNF-induced death) (% of p60ΔCD wild type) (p60 TNFR (endogenous)) does the source give for “p60ΔCD-HA K19E (from UniProt P19438 30-240) (receptor)” here?
A: 50

Q: How did the DOMINANT … (protection against TNF-induced death) (p60 TNFR (endogenous)) turn out when “p60ΔCD-HA K32A (from UniProt P19438 30-240) (receptor)” was run?
A: < 5 % protection

Q: How did the DOMINANT … (protection against TNF-induced death) (p60 TNFR (endogenous)) turn out when “p60ΔCD-HA KY19/20AA (from UniProt P19438 30-240) (receptor)” was run?
A: < 5 % protection

Q: Which DOMINANT … (protection against TNF-induced death) (% of p60ΔCD wild type) (p60 TNFR (endogenous)) does the source give for “p60ΔCD-HA L112E (from UniProt P19438 30-240) (receptor)” here?
A: 50

Q: With “p60ΔCD-HA N66F (from UniProt P19438 30-240) (receptor)” as the substance, how does the DOMINANT … (protection against TNF-induced death) (% of p60ΔCD wild type) (p60 TNFR (endogenous)) read?
A: 50

Q: For “p60ΔCD-HA Q24A (from UniProt P19438 30-240) (receptor)”, which DOMINANT … (protection against TNF-induced death) (% of p60ΔCD wild type) (p60 TNFR (endogenous)) is on record?
A: 50

Q: Which DOMINANT … (protection against TNF-induced death) (% of p60ΔCD wild type) (p60 TNFR (endogenous)) does the source give for “p60ΔCD-HA R77A (from UniProt P19438 30-240) (receptor)” here?
A: 50

Q: How did the DOMINANT … (protection against TNF-induced death) (% of p60ΔCD wild type) (p60 TNFR (endogenous)) turn out when “p60ΔCD-HA T61A (from UniProt P19438 30-240) (receptor)” was run?
A: 50

Q: For “p60ΔCD-HA W108T (from UniProt P19438 30-240) (receptor)”, which DOMINANT … (protection against TNF-induced death) (% of p60ΔCD wild type) (p60 TNFR (endogenous)) is on record?
A: 50
